Data on 8 molecules can be found in patent US20230165967A1 (TAE LIFE SCIENCES, published 2023).

Read-outs that look alike come from different tables or passages of the source.

The target of experiment [1] is T1, recombinant human soluble ECD of hCD16a/FCGRIIIA (human, UniProt P08637 17-208).
T1 construct: extracellular domain; also called FcγRIIIa
Nature of the experiment: ELISA: plate coated with recombinant human CD16a/FCGRIIIA ECD, antibody titrated 0.005-80 ug/ml, HRP goat anti-human Fc, OD650. A general note: An ELISA detects its analyte on a solid surface through an enzyme-linked reagent.

The target in experiment [2] is T2, recombinant human soluble ECD of CD64/FCGRIA (human, UniProt P12314 16-292).
T2 construct: extracellular domain; also called FcγRI
T2 sequence (P12314 16-292): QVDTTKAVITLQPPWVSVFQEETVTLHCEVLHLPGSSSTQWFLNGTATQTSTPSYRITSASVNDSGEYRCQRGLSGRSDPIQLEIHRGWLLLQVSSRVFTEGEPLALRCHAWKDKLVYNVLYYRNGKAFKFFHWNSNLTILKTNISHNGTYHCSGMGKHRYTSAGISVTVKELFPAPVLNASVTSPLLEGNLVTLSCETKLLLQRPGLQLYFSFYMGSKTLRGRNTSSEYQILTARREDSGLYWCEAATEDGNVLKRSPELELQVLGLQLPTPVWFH
The experiment can be described thus: ELISA: plate coated with recombinant human CD64/FCGRIA ECD, antibody titrated, HRP goat anti-human Fc, OD650.

Experiment [3] deals with T3, recombinant human FcRn (Sino Biological) (human, UniProt P55899 24-297; P61769 21-119). The experiment can be described thus: ELISA at pH 6.0: plate coated with recombinant human FcRn, antibody titrated, HRP goat anti-human Fc, OD650.
T3 sequence (P55899 24-297 limits assumed, chain 1 of 2): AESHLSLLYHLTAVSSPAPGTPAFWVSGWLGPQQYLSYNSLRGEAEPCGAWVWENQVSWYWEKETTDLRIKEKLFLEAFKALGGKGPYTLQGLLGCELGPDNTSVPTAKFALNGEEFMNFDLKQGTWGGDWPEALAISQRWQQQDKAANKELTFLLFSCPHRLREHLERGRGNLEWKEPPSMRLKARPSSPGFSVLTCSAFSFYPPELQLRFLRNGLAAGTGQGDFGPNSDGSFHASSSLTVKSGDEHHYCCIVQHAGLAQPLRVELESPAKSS
T3 sequence (P61769 21-119 limits assumed, chain 2 of 2): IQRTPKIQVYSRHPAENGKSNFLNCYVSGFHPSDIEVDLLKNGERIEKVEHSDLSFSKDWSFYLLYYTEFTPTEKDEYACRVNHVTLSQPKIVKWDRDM
For experiment [4], the target named is T1, recombinant human soluble ECD of …. Nature of the experiment: ELISA: plate coated with recombinant human CD16a/FCGRIIIA ECD, antibody titrated 0.005-80 ug/ml, HRP goat anti-human Fc, OD650. This is another data set of the same source.
The target in experiment [5] is human C1q (sigma Cat #C1740) (human, UniProt P02745 23-245; P02746 28-253; P02747 29-245). The experiment can be described thus: ELISA: plate coated with antibody at 1 ug/ml, human C1q titrated 0.625-40 ug/ml, rabbit anti-human C1q then HRP goat anti-rabbit, OD650.
Sequence of human C1q (sigma Cat #C1740) (P02745 23-245 limits assumed, chain 1 of 3): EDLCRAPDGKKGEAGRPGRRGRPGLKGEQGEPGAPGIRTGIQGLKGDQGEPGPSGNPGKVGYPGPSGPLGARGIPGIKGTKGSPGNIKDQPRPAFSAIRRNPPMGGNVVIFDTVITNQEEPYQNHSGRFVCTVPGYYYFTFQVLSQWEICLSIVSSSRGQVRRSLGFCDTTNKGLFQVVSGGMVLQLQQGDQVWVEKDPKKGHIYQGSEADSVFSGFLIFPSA
Sequence of human C1q (sigma Cat #C1740) (P02746 28-253 limits assumed, chain 2 of 3): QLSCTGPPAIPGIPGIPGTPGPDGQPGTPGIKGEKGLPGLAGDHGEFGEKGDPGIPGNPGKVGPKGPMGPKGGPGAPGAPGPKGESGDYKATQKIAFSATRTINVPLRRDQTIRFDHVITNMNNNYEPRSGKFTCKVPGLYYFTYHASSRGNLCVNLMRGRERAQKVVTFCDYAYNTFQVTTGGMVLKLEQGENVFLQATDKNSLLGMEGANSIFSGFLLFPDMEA
Sequence of human C1q (sigma Cat #C1740) (P02747 29-245 limits assumed, chain 3 of 3): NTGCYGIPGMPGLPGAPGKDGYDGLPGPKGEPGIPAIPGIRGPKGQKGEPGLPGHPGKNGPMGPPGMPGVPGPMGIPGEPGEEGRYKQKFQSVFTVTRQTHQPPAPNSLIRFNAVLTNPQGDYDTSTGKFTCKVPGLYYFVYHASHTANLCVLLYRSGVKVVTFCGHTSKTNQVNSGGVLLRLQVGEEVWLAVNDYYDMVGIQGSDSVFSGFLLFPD
Experiment [6] has as its target T3, recombinant human FcRn (Sino Biological). Nature of the experiment: ELISA at pH 6.0: plate coated with recombinant human FcRn, antibody titrated, HRP goat anti-human Fc, OD650. This is another data set of the same source.
Experiment [7] addresses T4, recombinant human soluble extracellular domain (ECD) of Trop2 (human, UniProt P09758 27-274).
T4 construct: extracellular domain; Bought protein
T4 sequence (looked up): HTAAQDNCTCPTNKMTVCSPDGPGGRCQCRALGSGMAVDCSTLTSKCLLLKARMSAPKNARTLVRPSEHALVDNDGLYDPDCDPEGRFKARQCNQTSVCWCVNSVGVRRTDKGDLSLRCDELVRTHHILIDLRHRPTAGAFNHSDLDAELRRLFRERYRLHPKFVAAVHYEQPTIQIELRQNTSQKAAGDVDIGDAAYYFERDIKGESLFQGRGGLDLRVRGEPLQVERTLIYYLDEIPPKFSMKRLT
The experiment can be described thus: ELISA: plate coated with recombinant human Trop2 ECD, antibody titrated 0.0003-20 nM, HRP goat anti-human Fc, OD650.

For experiment [8], the target named is T5, FcγRIIa (CD32) (Sino Biological, cat #10374-H08H) (UniProt P12318 34-218).
T5 sequence (looked up): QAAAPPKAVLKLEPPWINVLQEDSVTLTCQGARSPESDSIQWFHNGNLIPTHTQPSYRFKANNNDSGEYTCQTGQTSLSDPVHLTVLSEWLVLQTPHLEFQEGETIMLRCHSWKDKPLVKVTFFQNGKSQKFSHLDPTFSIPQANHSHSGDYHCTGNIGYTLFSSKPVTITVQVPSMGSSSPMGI
The experiment can be described thus: Sandwich ELISA: anti-His capture of His-tagged FcγRIIA mixed with titrated antibody, HRP goat anti-human IgG Fc, OD650.

Experiment [9] deals with T2, recombinant human soluble ECD of …. The experiment can be described thus: ELISA: plate coated with recombinant human CD64/FCGRIA ECD, antibody titrated, HRP goat anti-human Fc, OD650. The source holds these as a separate data set.

T1 sequence (P08637 17-208): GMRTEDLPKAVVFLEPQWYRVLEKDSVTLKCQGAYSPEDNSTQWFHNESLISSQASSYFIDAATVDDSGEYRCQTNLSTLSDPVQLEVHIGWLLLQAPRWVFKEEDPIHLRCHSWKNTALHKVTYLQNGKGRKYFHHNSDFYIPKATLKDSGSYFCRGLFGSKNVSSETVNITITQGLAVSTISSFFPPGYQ

B1: Anti-EGFR Ab No. 3 Wild Type (antibody, human IgG1)
heavy: not shown
light: DIQMTQSPSSLSASVGDRVTITCRSSQNIVHSNGNTYLDWYQQTPGKAPKLLIYKVSNRFSGVPSRFSGSGSGTDFTFTISSLQPEDIATYYCFQYSHVPWTFGQGTKLQITREVAAPSVFIFPPSDEQLKSGTASVVCLLNNFYPREAKVQWKVDNALQSGNSQESVTEQDSKDSTYSLSSTLTLSKADYEKHKVYACEVTHQGLSSPVTKSFNRGEC
notes: human IgG1 constant region; also called Anti-EGFR Mab No. 3; anti-EGFR mAb No. 3
In the case of B1, the “EC50 (read off the curve)” value is approximately 2 µg/mL in experiment [1] and approximately 0.05 µg/mL in [2]. Also, the binding result in experiment [3] is on record as “binds”.

B2: Anti-EGFR Ab No. 3 L234A, L235A, L328C (antibody, human IgG1, L234A L235A)
heavy: QVQLQQSGAEVKKPGSSVKVSCKASGYTFTNYYIYWVRQAPGQGLEWIGGINPTSGGSNFNEKFKTRVTITADESSTTAYMELSSLRSEDTAFYFCTRQGLWFDSDGRGFDFWGQGTTVTVSSASTKGPSVFPLAPSSKSTSGGTAALGCLVKDYFPEPVTVSWNSGALTSGVHTFPAVLQSSGLYSLSSVVTVPSSSLGTQTYICNVNHKPSNTKVDKRVEPKSCDKTHTCPPCPAPEAAGGPSVFLFPPKPKDTLMISRTPEVTCVVVDVSHEDPEVKFNWYVDGVEVHNAKTKPREEQYNSTYRVVSVLTVLHQDWLNGKEYKCKVSNKACPAPIEKTISKAKGQPREPQVYTLPPSREEMTKNQVSLTCLVKGFYPSDIAVEWESNGQPENNYKTTPPVLDSDGSFFLYSKLTVDKSRWQQGNVFSCSVMHEALHNHYTQKSLSLSPGK
light: DIQMTQSPSSLSASVGDRVTITCRSSQNIVHSNGNTYLDWYQQTPGKAPKLLIYKVSNRFSGVPSRFSGSGSGTDFTFTISSLQPEDIATYYCFQYSHVPWTFGQGTKLQITREVAAPSVFIFPPSDEQLKSGTASVVCLLNNFYPREAKVQWKVDNALQSGNSQESVTEQDSKDSTYSLSSTLTLSKADYEKHKVYACEVTHQGLSSPVTKSFNRGEC
notes: Fc variant; wild-type light chain, this heavy chain reads VDKRV where the wild type reads VDKKV; also called Anti-EGFR Mab No. 3 triple mutant; triple mutation L234A, L235A, and L328C
For the molecule B2, the binding result in [1] is listed as “no binding (tested: 80 ug/mL)”.

B3: Anti-EGFR Ab No. 3 L234A, L235A (antibody, human IgG1, L234A L235A)
heavy: not shown
light: DIQMTQSPSSLSASVGDRVTITCRSSQNIVHSNGNTYLDWYQQTPGKAPKLLIYKVSNRFSGVPSRFSGSGSGTDFTFTISSLQPEDIATYYCFQYSHVPWTFGQGTKLQITREVAAPSVFIFPPSDEQLKSGTASVVCLLNNFYPREAKVQWKVDNALQSGNSQESVTEQDSKDSTYSLSSTLTLSKADYEKHKVYACEVTHQGLSSPVTKSFNRGEC
notes: Fc variant; wild-type light chain; also called Anti-EGFR Mab No. 3 double mutant; double mutation L234A and L235A
Turning to B3, the concentration for a half-maximal effect (EC50 (read off the curve)) in experiment [2] is approximately 4 µg/mL. Moreover, the binding result in [3] is given as “binds”.

B4: Anti-EGFR Ab No. 3 L328C (antibody, human IgG1)
heavy: not shown
light: DIQMTQSPSSLSASVGDRVTITCRSSQNIVHSNGNTYLDWYQQTPGKAPKLLIYKVSNRFSGVPSRFSGSGSGTDFTFTISSLQPEDIATYYCFQYSHVPWTFGQGTKLQITREVAAPSVFIFPPSDEQLKSGTASVVCLLNNFYPREAKVQWKVDNALQSGNSQESVTEQDSKDSTYSLSSTLTLSKADYEKHKVYACEVTHQGLSSPVTKSFNRGEC
notes: Fc variant; wild-type light chain, this heavy chain reads VDKRV where the wild type reads VDKKV; also called Anti-EGFR Mab No. 3 single mutant; single mutation L328C
With B4, the “EC50 (read off the curve)” value in experiment [2] was approximately 0.1 µg/mL.

B5: Anti-Trop2 Ab Wild Type (antibody, human IgG1, kappa)
heavy: not shown
light: DIQLTQSPSSLSASVGDRVSITCKASQDVSIAVAWYQQKPGKAPKLLIYSASYRYTGVPDRFSGSGSGTDFTLTISSLQPEDFAVYYCQQHYITPLTFGAGTKVEIKRTVAAPSVFIFPPSDEQLKSGTASVVCLLNNFYPREAKVQWKVDNALQSGNSQESVTEQDSKDSTYSLSSTLTLSKADYEKHKVYACEVTHQGLSSPVTKSFNRGEC
notes: human IgG1 constant region; also called Anti-Trop2 Mab; anti-TROP2 mAb
B5: the “EC50 (read off the curve)” value in experiment [4] is approximately 2 µg/mL; in experiment [7], approximately 60 pM; in experiment [9], approximately 0.08 µg/mL. For the same molecule, the binding result in [5], in experiment [6] and in experiment [8] was “binds” throughout.

B6: Anti-Trop2 Ab L328C (antibody, human IgG1, kappa)
heavy: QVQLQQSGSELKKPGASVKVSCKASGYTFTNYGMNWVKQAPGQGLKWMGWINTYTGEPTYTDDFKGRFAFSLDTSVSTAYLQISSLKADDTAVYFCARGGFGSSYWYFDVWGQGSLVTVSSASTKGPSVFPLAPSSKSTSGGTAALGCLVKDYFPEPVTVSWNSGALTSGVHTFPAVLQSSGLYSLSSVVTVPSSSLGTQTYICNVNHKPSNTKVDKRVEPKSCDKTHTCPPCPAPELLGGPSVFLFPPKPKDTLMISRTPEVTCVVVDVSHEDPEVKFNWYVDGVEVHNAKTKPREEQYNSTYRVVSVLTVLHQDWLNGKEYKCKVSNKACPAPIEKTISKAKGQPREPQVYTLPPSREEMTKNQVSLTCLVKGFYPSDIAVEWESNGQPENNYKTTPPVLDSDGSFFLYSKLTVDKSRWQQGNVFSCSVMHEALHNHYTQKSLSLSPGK
light: DIQLTQSPSSLSASVGDRVSITCKASQDVSIAVAWYQQKPGKAPKLLIYSASYRYTGVPDRFSGSGSGTDFTLTISSLQPEDFAVYYCQQHYITPLTFGAGTKVEIKRTVAAPSVFIFPPSDEQLKSGTASVVCLLNNFYPREAKVQWKVDNALQSGNSQESVTEQDSKDSTYSLSSTLTLSKADYEKHKVYACEVTHQGLSSPVTKSFNRGEC
notes: Fc variant; wild-type light chain; also called Anti-Trop2 Mab single mutant; single mutation L328C
B6: the binding result in experiment [5], in [6] and in experiment [8] was “binds” in each case. In addition, the “EC50 (read off the curve)” value is approximately 60 pM in [7] and approximately 0.2 µg/mL in experiment [9].

B7: Anti-Trop2 Ab L234A, L235A (antibody, human IgG1, kappa, L234A L235A)
heavy: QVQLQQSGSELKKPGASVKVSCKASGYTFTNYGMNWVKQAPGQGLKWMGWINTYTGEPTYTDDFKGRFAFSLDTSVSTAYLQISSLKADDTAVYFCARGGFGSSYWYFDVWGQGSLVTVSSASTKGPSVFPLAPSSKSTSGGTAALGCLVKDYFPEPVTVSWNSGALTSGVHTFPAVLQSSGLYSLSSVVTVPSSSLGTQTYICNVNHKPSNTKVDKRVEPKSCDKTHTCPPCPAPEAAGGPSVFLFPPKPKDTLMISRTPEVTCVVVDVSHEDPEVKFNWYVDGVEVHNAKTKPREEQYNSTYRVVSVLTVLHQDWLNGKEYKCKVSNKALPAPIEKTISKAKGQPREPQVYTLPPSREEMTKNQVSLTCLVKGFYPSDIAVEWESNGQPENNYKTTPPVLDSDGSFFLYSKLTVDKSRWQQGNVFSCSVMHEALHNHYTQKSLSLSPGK
light: DIQLTQSPSSLSASVGDRVSITCKASQDVSIAVAWYQQKPGKAPKLLIYSASYRYTGVPDRFSGSGSGTDFTLTISSLQPEDFAVYYCQQHYITPLTFGAGTKVEIKRTVAAPSVFIFPPSDEQLKSGTASVVCLLNNFYPREAKVQWKVDNALQSGNSQESVTEQDSKDSTYSLSSTLTLSKADYEKHKVYACEVTHQGLSSPVTKSFNRGEC
notes: Fc variant; wild-type light chain; also called Anti-Trop2 Mab double mutant; double mutation L234A and L235A
As to B7, the binding result in [5], in [8] and in experiment [9] was “binds” each time. Also, the “EC50 (read off the curve)” value in experiment [6] was approximately 1 µg/mL; in experiment [7], approximately 60 pM.

B8: Anti-Trop2 Ab L234A, L235A, L328C (antibody, human IgG1, kappa, L234A L235A)
heavy: QVQLQQSGSELKKPGASVKVSCKASGYTFTNYGMNWVKQAPGQGLKWMGWINTYTGEPTYTDDFKGRFAFSLDTSVSTAYLQISSLKADDTAVYFCARGGFGSSYWYFDVWGQGSLVTVSSASTKGPSVFPLAPSSKSTSGGTAALGCLVKDYFPEPVTVSWNSGALTSGVHTFPAVLQSSGLYSLSSVVTVPSSSLGTQTYICNVNHKPSNTKVDKRVEPKSCDKTHTCPPCPAPEAAGGPSVFLFPPKPKDTLMISRTPEVTCVVVDVSHEDPEVKFNWYVDGVEVHNAKTKPREEQYNSTYRVVSVLTVLHQDWLNGKEYKCKVSNKACPAPIEKTISKAKGQPREPQVYTLPPSREEMTKNQVSLTCLVKGFYPSDIAVEWESNGQPENNYKTTPPVLDSDGSFFLYSKLTVDKSRWQQGNVFSCSVMHEALHNHYTQKSLSLSPGK
light: DIQLTQSPSSLSASVGDRVSITCKASQDVSIAVAWYQQKPGKAPKLLIYSASYRYTGVPDRFSGSGSGTDFTLTISSLQPEDFAVYYCQQHYITPLTFGAGTKVEIKRTVAAPSVFIFPPSDEQLKSGTASVVCLLNNFYPREAKVQWKVDNALQSGNSQESVTEQDSKDSTYSLSSTLTLSKADYEKHKVYACEVTHQGLSSPVTKSFNRGEC
notes: Fc variant; wild-type light chain; also called Anti-Trop2 Mab triple mutant; triple mutation L234A, L235A, and L328C
Take B8: the binding result is “no binding (tested: 80 ug/ml)” in experiment [4]; “binds” in experiment [5]; “binds” in experiment [6]; “binds” in experiment [8]; “no binding (tested: 30 ug/ml)” in [9]. For the same molecule, the “EC50 (read off the curve)” value in [7] is approximately 60 pM.

By EC50 (read off the curve) is commonly meant the concentration giving half of the maximal effect.
